Laboratory results published in patent US20210155689A1 (SHANGHAI PHARMAEXPLORER, published 2021).
Numbering of substitutions follows the chain as printed.

B1: 556F6B8 mouse-human chimeric antibody (antibody, V domains shown)
VH: RVQLKQSGPGLVQPSQSLSITCTVSGFSLIKYGVHWVRQSPGEGLEWLGVIWRGGITDYNAAFMSRLSITKDNSKSQVFFKMNSLQADDTAIYYCAKWDGPLAMDYWGQGTSVTVSS
VL: DIVMTQSHKFLSTSVGDRVSITCKASQDVGTTVAWYQQKPGQSPKLLIYWASTRHTGVPDRFTGSGSGTDFTLTISNVQSEDLADYFCQQYSSYPYTFGGGTKLEIK
notes: also called mAb123-556F6B8; 556F8B8
B2: 556F6B8 (mouse antibody purified from hybridoma) (antibody, V domains shown)
VH: B1 VH
VL: B1 VL
notes: also called mAb123-556F6B8
B3: 556F6B8 (LAG-3 mouse-human chimeric antibody) (antibody, V domains shown)
VH: B1 VH
VL: B1 VL
notes: also called 556F8B8
B4: 405B8H3 (mouse antibody purified from hybridoma) (antibody, V domains shown)
VH: QVQLQQSGAELVRPGASVTLSCKASGYTFTDYEMHWVKQTPVHGLEWIGATDPETGNSAYNQKFKGKAIMTADKSSSTAYMELRSLTSEDSAVYYCISTGWNDWGQGTSLTVSS
VL: DIKMTQSPSSMYASLGERVTITCKASQDINSYLSWFQQKPGKSPKTLIYRADRLLDGVPSRFSGSGSGQDYSLTISSLEYGDMGIYYCLQYDEFPYTFGGGTKLEIK
notes: also called mAb103-405B8H3; 405B81-13
B5: 105F1E10 mouse-human chimeric antibody (antibody, V domains shown)
VH: EVQLQQSGPELVKPGASVKMSCRASGYTFTDFKMHWMKQSHGKSLEWIGYIAPNNGGTAYNQKFRGKATLTVNESSNTAYMELRSLTSEDSAVYYCVDWDDVDYWGQGTTLTVSS
VL: B4 VL with P40S, D52N, L55V, G81E, D92V, Y96L, G100A, I106L
notes: also called mAb009-105F1E10
B6: 105F1E10 (LAG-3 mouse-human chimeric antibody) (antibody, V domains shown)
VH: B5 VH
VL: B4 VL with P40S, D52N, L55V, G81E, D92V, Y96L, G100A, I106L
B7: 405B8H3 (LAG-3 mouse-human chimeric antibody) (antibody, V domains shown)
VH: B4 VH
VL: B4 VL
notes: also called mouse-human chimeric antibody 405B8H3
B8: 105F1E10 (mouse antibody purified from hybridoma) (antibody, V domains shown)
VH: B5 VH
VL: B4 VL with P40S, D52N, L55V, G81E, D92V, Y96L, G100A, I106L
notes: also called mAb009-105F1E10
B9: 405B8H3 mouse-human chimeric antibody (antibody, V domains shown)
VH: B4 VH
VL: B4 VL
notes: also called mAb103-405B8H3
B10: 409B11E12 mouse-human chimeric antibody (antibody, V domains shown)
VH: B4 VH with P41T, G56S, N57Y, M70L, S98A
VL: B4 VL with I2L, D52N, G81E
notes: also called mAb104-409B11E12
B11: 409D4E10 (LAG-3 mouse-human chimeric antibody) (antibody, V domains shown)
VH: B4 VH with Y27N, G56D, S58T, M70L, A72T, S98T, T99S
VL: B4 VL with D52N, G81E, D92N
B12: 409D4E10 (mouse antibody purified from hybridoma) (antibody, V domains shown)
VH: B4 VH with Y27N, G56D, S58T, M70L, A72T, S98T, T99S
VL: B4 VL with D52N, G81E, D92N
notes: also called mAb112-409D4E10
B13: 409D4E10 mouse-human chimeric antibody (antibody, V domains shown)
VH: B4 VH with Y27N, G56D, S58T, M70L, A72T, S98T, T99S
VL: B4 VL with D52N, G81E, D92N
notes: also called mAb112-409D4E10
B14: 409B11E12 (LAG-3 mouse-human chimeric antibody) (antibody, V domains shown)
VH: B4 VH with P41T, G56S, N57Y, M70L, S98A
VL: B4 VL with I2L, D52N, G81E
B15: 409B11E12 (mouse antibody purified from hybridoma) (antibody, V domains shown)
VH: B4 VH with P41T, G56S, N57Y, M70L, S98A
VL: B4 VL with I2L, D52N, G81E
notes: also called mAb104-409B11E12

Columns and labels:
[1] = molecular target: T1, LAG-3-hFc protein (human LAG-3 extracellular region with hFc tag) (human, UniProt P18627 23-450); assay: FACS, inhibition of LAG-3-hFc binding to MHC II on Raji cells, antibody 7.407 nM
T1 construct: also called hLAG-3-hFc; LAG-3 protein; not shown: human IgG Fc fragment (hFc) of the pCpC vector
T1 sequence: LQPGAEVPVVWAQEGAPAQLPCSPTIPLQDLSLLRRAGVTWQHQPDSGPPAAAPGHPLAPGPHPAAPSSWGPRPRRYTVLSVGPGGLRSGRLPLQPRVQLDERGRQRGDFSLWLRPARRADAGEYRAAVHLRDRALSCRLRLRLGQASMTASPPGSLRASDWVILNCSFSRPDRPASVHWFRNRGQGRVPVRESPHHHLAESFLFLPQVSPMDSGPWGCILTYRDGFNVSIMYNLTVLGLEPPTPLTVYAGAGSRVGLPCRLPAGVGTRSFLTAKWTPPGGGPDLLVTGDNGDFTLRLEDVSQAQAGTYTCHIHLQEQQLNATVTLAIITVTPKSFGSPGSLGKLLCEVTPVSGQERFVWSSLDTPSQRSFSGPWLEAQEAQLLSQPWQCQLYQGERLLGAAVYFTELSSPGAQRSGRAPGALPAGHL
Method: The FACS reaction plate incubating the Raji cells was centrifuged to discard the supernatant. The above mixture was added as 100 μl per well to Raji cells and incubated on ice for 1-2 hours. The plate was washed twice with blocking solution (PBS, 2% fetal bovine serum) by centrifugation, added with 100 microliters of fluorescent (Alexa 488)-labeled secondary antibodies per well, and incubated on ice for 1.0 hours. The plate was washed 2-3 times by centrifugation with blocking solution (PBS, 2% fetal bovine serum), added with 100 microliters of PBS per well to suspend cells, and detected using FACS (FACS Calibur, BD) and the results were analyzed. Wherein, the IgG control was murine IgG, and the data in the table is the inhibition rate (%).

[2] = molecular target: T2, human LAG-3 (full length, on the cell surface) (human, UniProt P18627 23-525); assay: FACS, HEK293-hLAG-3; 0.064 nM
T2 construct: Full-length human LAG-3 expressed on cells; also called HEK293-hLAG-3; HEK293 cells transfected with LAG-3 gene
T2 sequence: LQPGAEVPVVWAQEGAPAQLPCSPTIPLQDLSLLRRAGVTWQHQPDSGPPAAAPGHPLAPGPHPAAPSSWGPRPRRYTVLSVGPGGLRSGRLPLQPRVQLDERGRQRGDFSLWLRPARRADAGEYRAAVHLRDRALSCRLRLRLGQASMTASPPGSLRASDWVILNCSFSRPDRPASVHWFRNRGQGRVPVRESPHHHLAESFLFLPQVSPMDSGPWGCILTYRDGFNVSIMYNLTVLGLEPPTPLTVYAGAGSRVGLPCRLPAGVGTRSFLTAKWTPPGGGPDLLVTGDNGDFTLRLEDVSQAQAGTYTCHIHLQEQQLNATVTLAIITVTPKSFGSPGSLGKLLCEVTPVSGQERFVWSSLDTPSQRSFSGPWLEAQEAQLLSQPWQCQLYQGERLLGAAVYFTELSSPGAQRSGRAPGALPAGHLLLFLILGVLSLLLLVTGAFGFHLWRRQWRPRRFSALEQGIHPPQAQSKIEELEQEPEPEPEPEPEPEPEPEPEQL
Source text: The pIRES plasmid with the monkey-derived full-length gene was transfected into the HEK293 cell line to construct a HEK293 stable cell line containing monkey LAG-3 (herein referred to as HEK293-cLAG-3 stable cell line). The HEK293-hLAG-3 stable cell line and HEK293-cLAG-3 stable cell line were expanded in a T-75 cell culture flask to a 90% confluence. The medium was aspirated, and the cells were washed with HBSS (Hanks' Balanced Salt Solution) 1-2 times, then treated with a enzyme-free cell dissociation fluid (Versene solution: Life technology) and the cells were collected. The cells were washed with HBSS buffer for 1-2 times. After counted, the cells were diluted with HBSS to 1-2×10⁶ cells per ml, added with 1% goat serum blocking solution, incubated on ice for 20-30 minutes, and then washed with HBSS for 2 times by centrifugation. The collected cells were suspended in the FACS buffer (HBSS+1% BSA) to 2×10⁶ cells/ml, added as 100 microliters per well to a 96-well FACS reaction plate, added with 100 microliters per well of the antibody sample to be tested, incubated on ice for 1-2 hours. The plate was washed twice with the FACS buffer by centrifugation, added with 100 microliters of fluorescent (Alexa 488)-labeled secondary antibodies per well, and incubated on ice for 0.5-1.0 hours. The plate was washed 2-3 times with FACS buffer by centrifugation, added with 100 μl fixative solution (4% Paraformaldehyde) per well to suspend the cells. 5-10 minutes later, it was washed 1-2 times with FACS buffer by centrifugation. The cells were suspended with 100 microliters of FACS buffer, FACS (FACSCalibur, BD) was used for detection and the results were analyzed.

[3] = molecular target: T3, mouse LAG-3 protein with hFc tag (mLAG-3-hFc protein) (mouse; human, UniProt Q61790 24-442); assay: ELISA, mLAG-3-hFc coated; 0.0067 nM
T3 construct: Made in HEK293 cells; also called mouse LAG-3 extracellular domain protein; not shown: human IgG Fc fragment (hFc) of the pCpC vector
T3 sequence: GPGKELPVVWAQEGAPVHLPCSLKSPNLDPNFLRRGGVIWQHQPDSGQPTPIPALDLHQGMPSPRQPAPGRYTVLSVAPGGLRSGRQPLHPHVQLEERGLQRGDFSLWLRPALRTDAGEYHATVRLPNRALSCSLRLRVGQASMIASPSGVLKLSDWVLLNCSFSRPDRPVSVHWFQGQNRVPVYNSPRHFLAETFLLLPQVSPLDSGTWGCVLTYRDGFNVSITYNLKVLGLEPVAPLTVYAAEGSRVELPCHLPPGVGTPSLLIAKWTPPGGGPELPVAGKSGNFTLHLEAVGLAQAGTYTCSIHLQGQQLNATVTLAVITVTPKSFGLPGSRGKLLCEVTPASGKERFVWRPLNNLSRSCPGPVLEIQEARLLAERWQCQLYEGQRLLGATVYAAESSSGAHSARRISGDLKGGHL
Method: The plate was sealed with plastic film and incubated overnight at 4° C. The plate was washed 2 times with the plate washing solution (PBS+0.01% Tween20) on the next day, and added with the blocking solution (PBS+0.01% Tween20+1% BSA) and blocked at room temperature for 1-2 hours. The blocking solution was poured out, and the plate was added with 50-100 μl of the antibody sample to be tested to each well, incubated at 37° C. for 1-2 hours, and washed 2-3 times with a plate washing solution (PBS+0.01% Tween20). HRP (horseradish peroxidase) labeled secondary antibody was added, and the plate was incubated at 37° C. for 1-2 hours, and washed 2-3 times with a plate washing solution (PBS+0.01% Tween20). 100 μl of TMB substrate was added to each well. After incubated at room temperature for 15-30 minutes, the plate was added with 100 μl of stop solution (1.0N HCl) to each well.

Binder	Inhibition rate (%) [1]	Mean fluorescence intensity [2]	OD450 [3]
B1	82.7%	–	–
B2	–	6.8 MFI	–
B3	–	–	0.14 OD450
B4	–	8.7 MFI	–
B5	67%	–	–
B6	–	–	0.09 OD450
B7	–	–	0.08 OD450
B8	–	8.6 MFI	–
B9	95.1%	–	–
B10	95.1%	–	–
B11	–	–	0.09 OD450
B12	–	4.9 MFI	–
B13	94.7%	–	–
B14	–	–	0.07 OD450
B15	–	5 MFI	–
